Source: publication PMC8951016, “Computational Design and Biological Evaluation of Analogs of Lupin Peptide P5 Endowed with Dual PCSK9/HMG-CoAR Inhibiting Activity” (Pharmaceutics, 2022)

Assays:
[1] = biological target: T1, HMG-CoAR (catalytic domain) (Homo sapiens, UniProt P04035); conditions: parent peptide; read-out: IC50, HMG-CoAR activity (P5); cited from earlier work
T1 construct: finally the HMG-CoAR (cata- lytic domain) (2 µL); purchased Sigma-Aldrich
T1 sequence (P04035 426-888 limits assumed): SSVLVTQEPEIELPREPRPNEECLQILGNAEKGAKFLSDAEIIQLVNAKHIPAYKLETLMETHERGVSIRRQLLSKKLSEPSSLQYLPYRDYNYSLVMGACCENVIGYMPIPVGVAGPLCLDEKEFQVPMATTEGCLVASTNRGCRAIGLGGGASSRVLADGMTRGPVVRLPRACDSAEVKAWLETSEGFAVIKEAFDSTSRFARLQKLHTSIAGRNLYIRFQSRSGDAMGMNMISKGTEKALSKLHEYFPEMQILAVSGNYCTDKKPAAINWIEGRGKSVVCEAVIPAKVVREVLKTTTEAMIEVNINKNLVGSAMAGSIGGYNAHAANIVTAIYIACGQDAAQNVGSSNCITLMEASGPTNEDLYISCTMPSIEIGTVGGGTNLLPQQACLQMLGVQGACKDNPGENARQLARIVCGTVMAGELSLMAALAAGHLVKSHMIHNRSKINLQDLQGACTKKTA

LDL uptake, HepG2 cells = conditions: cited from earlier work
Excerpt: In fact, in our previous paper, by applying a computational approach such as the one here applied, we designed and biologically evaluated two poly-imidazole derivatives endowed with PCSK9 inhibiting activity.

PCSK9-LDLR = biological target: T2, PCSK9-LDLR (Homo sapiens, UniProt Q8NBP7); conditions: parent peptide; read-out: IC50, PCSK9-LDLR binding (P5); cited from earlier work
T2 construct: purchased CycLex Co., Nagano, Japan (CircuLex)
T2 sequence (Q8NBP7 153-692): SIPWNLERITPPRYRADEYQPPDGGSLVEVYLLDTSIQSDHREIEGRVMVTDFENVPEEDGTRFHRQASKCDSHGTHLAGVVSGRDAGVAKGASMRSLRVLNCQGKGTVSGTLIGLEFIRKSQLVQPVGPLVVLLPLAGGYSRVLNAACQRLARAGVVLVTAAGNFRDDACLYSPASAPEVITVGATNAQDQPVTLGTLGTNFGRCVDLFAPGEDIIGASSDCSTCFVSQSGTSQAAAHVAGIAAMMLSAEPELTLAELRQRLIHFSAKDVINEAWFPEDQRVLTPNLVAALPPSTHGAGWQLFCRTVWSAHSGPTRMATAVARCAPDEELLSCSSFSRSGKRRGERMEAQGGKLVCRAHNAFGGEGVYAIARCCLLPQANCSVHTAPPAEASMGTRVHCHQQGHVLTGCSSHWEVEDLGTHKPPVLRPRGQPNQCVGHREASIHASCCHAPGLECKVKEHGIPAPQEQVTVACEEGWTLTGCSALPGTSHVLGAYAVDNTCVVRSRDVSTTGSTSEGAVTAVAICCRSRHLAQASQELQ
T2 sequence (Q8NBP7 31-152 partner limits assumed): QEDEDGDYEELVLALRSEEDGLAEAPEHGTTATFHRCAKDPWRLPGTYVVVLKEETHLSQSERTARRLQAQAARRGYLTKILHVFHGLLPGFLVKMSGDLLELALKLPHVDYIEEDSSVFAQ

PCSK9 = assay: Western blot, PCSK9 protein level in HepG2; assay type: cell-based, human; conditions: active at 50 µM in hepatic cells vs 250 µM; PCSK9 protein level and secretion
Protocol: A total of 1.5 × 10^5 HepG2 cells/well (24-well plate) were treated with 50 μM of P5 and P5 analogs for 24 h. Immunoblotting experiments were performed using optimized protocol. See Supplementary Materials for further details.
PBS for 1.5 h at RT. LDLR primary antibody solution (1:3000 in 5% BSA in PBS, 25 µL/well) was incubated O/N at +4 °C. Subsequently, the primary antibody solution was discarded and each sample was washed 5 times with 100 µL/well of PBS (each wash was for 5 min at RT). Goat anti-rabbit Ig-HRP secondary antibody solution (Santa Cruz) (1:6000 in 5% BSA in PBS, 50 µL/well), was added and incubated 1 h at RT. […] The reaction was stopped with 2 M H2SO4 and then the absorbance at 450 nm was measured using the microplate reader Synergy H1 (Winoo-ski, VT, USA). After the read, cells were stained by adding 1 X Janus Green stain, incubat-ing for 5 min at RT. […]
Afterward 100 µL 0.5 M HCl for well were added and incubated for 10 min. After 10 sec-onds shaking, the OD at 595 nm was measured using the microplate reader Synergy H1 […]
Fluorescent LDL Uptake. […] The degree of LDL uptake was measured using the Synergy H1 fluo-rescent plate reader (Winooski, VT, USA) (excitation and emission wavelengths 540 and 570 nm, respectively). Fluorescent LDL-uptake was finally assessed following optimized […]

## LILPKHSDAD [Peptide P5, natural peptide derived from a peptic lupin protein hydrolysate]
[1]
  IC50: 147 µM
LDL uptake, HepG2 cells
  uptake of extracellular LDL by HepG2 (P5, earlier work, words): improved ability of HepG2 cells to uptake extracellular LDL
PCSK9-LDLR
  IC50: 1.6 µM
PCSK9
  fold potency vs YVVNPDNNEN: 5 -fold
